{"source": "patent US20040116653A1", "biological_target": "human CD4 on cells (MT-2, MT-4 cells; mouse SR.hCD4 cells transfected with human CD4) (human) (UniProt P01730)", "assay": "cell-based or functional assay"}
{"substance": "synthetic soluble multiple-branched peptide (MBP) corresponding to amino acids 51-74 of CD38 (CD3851-74 MBP)", "values": [{"measurement": "EC50, inhibition of HIV-1IIIB infection of MT-4 cells (p24 ELISA, day 3)", "value": 12, "unit": "nM"}, {"measurement": "EC90, inhibition of HIV-1IIIB infection of MT-4 cells (p24 ELISA, day 3)", "value": 75, "unit": "nM"}]}
